B1: Circadian clock oscillator protein KaiB (Thermosynechococcus elongatus (strain BP-1)), Q79V61 (parent)
chain: MAPLRKTYVLKLYVAGNTPNSVRALKTLNNILEKEFKGVYALKVIDVLKNPQLAEEDKILATPTLAKVLPPPVRRIIGDLSNREKVLIGLDLLYEEIGDQAEDDLGLE
partner: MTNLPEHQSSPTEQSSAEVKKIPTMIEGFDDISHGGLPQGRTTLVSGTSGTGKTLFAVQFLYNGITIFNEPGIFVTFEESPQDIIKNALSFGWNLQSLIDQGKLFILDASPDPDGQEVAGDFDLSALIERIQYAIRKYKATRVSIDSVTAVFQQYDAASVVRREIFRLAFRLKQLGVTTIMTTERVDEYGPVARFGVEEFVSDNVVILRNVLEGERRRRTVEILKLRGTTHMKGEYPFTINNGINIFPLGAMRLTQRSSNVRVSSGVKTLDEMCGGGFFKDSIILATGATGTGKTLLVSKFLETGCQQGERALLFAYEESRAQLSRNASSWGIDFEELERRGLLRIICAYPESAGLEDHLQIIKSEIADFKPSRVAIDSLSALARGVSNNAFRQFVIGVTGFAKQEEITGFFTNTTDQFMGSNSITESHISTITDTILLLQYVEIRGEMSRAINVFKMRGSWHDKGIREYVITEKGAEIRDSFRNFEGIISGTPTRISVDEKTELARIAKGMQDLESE
B2: Circadian clock oscillator protein KaiB (Thermosynechococcus elongatus (strain BP-1)), Q79V61 (parent)
chain: B1 chain
partner: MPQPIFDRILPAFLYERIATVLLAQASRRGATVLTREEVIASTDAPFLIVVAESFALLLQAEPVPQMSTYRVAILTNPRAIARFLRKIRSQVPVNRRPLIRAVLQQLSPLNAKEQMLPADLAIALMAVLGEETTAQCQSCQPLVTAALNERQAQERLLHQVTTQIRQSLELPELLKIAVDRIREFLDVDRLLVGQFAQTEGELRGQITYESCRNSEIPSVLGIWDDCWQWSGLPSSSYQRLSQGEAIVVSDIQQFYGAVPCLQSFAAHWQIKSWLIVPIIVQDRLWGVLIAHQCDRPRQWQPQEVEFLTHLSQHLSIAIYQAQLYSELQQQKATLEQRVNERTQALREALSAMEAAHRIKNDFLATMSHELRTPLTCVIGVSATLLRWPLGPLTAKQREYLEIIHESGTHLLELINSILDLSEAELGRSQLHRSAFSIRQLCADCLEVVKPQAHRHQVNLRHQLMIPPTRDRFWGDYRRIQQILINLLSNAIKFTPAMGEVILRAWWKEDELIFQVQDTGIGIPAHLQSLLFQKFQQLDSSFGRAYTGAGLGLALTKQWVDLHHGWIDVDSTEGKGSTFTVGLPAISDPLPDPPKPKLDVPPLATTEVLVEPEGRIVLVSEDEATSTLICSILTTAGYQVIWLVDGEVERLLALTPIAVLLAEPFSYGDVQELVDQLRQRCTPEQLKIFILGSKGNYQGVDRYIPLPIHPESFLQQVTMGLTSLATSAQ

Variants of: B1
Conditions: with kaic_thevb kaiC

effect of a mutation on the interaction | Variant
with no effect | Y8A;I88A;Y94A

Variants of: B2
Conditions: with cika_thevb cikA

effect of a mutation on the interaction | Variant
with no effect | N29A

— IntAct's records for PubMed 28302851
